We go through one molecule from PMC5216124, “Cell division orientation is coupled to cell–cell adhesion by the E-cadherin/LGN complex” (Nature Communications, 2017).

The test has as its target T1, LGN-TPR:S-tag (human, UniProt P81274 8-311).
T1 construct: LGN, human, NM_013296.4, TPR repeats, amino acids 8-311; also called LGN-TPR with C-terminal S-tag; not shown: S-tag, C-terminal, kept
T1 sequence (looked up): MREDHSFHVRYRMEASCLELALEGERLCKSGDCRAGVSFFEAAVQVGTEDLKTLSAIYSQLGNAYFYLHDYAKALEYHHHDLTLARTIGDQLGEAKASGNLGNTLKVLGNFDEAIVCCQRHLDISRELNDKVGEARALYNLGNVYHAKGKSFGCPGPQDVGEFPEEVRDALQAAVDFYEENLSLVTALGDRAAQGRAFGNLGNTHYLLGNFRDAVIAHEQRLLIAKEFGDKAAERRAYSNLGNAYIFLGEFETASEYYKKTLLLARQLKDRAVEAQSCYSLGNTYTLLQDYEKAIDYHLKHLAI
Briefly: pull-down; in vitro competition: E-cad-cyto/LGN-TPR:S-tag complex (GST cleaved off with TEV) held on S-protein agarose by the S-tag; 100 μg NuMA (1808-1988) added, 4 °C overnight; blotted for LGN and E-cadherin. The note with it: both partners purified.

B1: region of human NuMA containing the LGN-binding site (domain or fragment, UniProt Q14980-1 1808-1988, looked up)
chain: RRRTTQIINITMTKKLDVEEPDSANSSFYSTRSAPASQASLRATSSTQSLARLGSPDYGNSALLSLPGYRPTTRSSARRSQAGVSSGAPPGRNSFYMGTCQDEPEQLDDWNRIAELQQRNRVCPPHLKTCYPLESRPSLSLGTITDEEMKTGDPQETLRRASMQPIQIAEGTGITTRQQRK
notes: also called NuMA peptide; source: E. coli BL21 (DE3), purified (glutathione agarose, TEV cleavage, MonoQ)
Turning to B1, the binding result is on record as “binds”.
